From US20180258163A1 (Chugai, published 2018) come the findings set out here.

Assay [1] addresses T1, human IgE (human, UniProt P01854-1 1-428).
T1 construct: whole IgE; also called hIgE
The experiment in a line: SPR, Ab captured, IgE analyte, pH 5.8, 25C. The protocol: (§1) An appropriate amount of Protein A/G (ACTIGEN) was fixed onto Sensor chip CM4 (GE Healthcare) by the amine coupling method to capture the antibodies of interest. Next, human IgE was made to interact with the antibodies captured onto the sensor chip by injecting a diluted IgE solution and a running buffer (used as a reference solution). For the running buffer, either of the buffers (1) and (2) above was used, and human IgE was diluted using the respective buffer. To regenerate the sensor chip, 10 mM glycine-HCl at pH 1.5 was used. All measurements were carried out at 25° C. KD (M) for human IgE was calculated for each antibody based on the association rate constant ka (1/Ms) and dissociation rate constant kd (1/s), which are kinetic parameters calculated from the sensorgrams obtained by the measurements. The BIACORE T100 Evaluation Software (GE Healthcare) was used to calculate each parameter.

Assay [2] concerns the target T1, human IgE. The experiment in a line: SPR, Ab captured, IgE analyte, pH 7.4, 25C. Here is the method: as §1
On the technique in general: SPR reads the build-up and loss of mass on a sensor chip optically.

Assay [3] concerns the target T2, soluble human FcγRIIb (human, UniProt P31994 43-217, limits assumed).
T2 construct: soluble His-tagged form; also called hFcγRIIb
T2 sequence (looked up): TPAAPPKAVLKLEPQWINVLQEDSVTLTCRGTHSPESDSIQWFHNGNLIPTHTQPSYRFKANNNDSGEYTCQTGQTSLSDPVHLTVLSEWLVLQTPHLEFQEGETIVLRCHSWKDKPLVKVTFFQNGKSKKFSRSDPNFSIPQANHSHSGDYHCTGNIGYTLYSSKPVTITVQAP
The experiment in a line: SPR, Ab-IgE complex over captured hFcγRIIb, pH 7.4, 25C. Here is the method: (§2) Regarding the produced Fc region variant-containing antibodies, binding assays between soluble human FcγRIIb and antigen-antibody complexes were performed using BIACORE T200 (GE Healthcare). Soluble human FcγRIIb (NCBI accession NM_004001.3) was produced in the form of a His-tagged molecule by a method known in the art. An appropriate amount of an anti-His antibody was fixed onto Sensor chip CM5 (GE Healthcare) by the amine coupling method using a His capture kit (GE Healthcare) to capture human FcγRIIb. Next, an antibody-antigen complex and a running buffer (as a reference solution) were injected, and interaction was allowed to take place with the human FcγRIIb captured onto the sensor chip. 20 mM N-(2-Acetamido)-2-aminoethanesulfonic acid, 150 mM NaCl, 1.2 mM CaCl₂, and 0.05% (w/v) Tween 20 at pH 7.4 was used as the running buffer, and the respective buffer was also used to dilute the soluble human FcγRIIb. To regenerate the sensor chip, 10 mM glycine-HCl at pH 1.5 was used. All measurements were carried out at 25° C. Analyses were performed based on binding (RU) calculated from sensorgrams obtained by the measurements, and relative values when the binding amount of Ab1H/Ab1L (original Ab1) was defined as 1.00 are shown. To calculate the parameters, the BIACORE T100 Evaluation Software (GE Healthcare) was used.

For assay [4], the target named is T2, soluble human FcγRIIb. Described as above. The protocol: as §2
The source holds these as a separate data set.

The target in assay [5] is T2, soluble human FcγRIIb. The assay is described as above. Here is the method: as §2
The source holds these as a separate data set.

The target in assay [6] is T3, human IL-8 (human, UniProt P10145 23-99, limits assumed).
T3 construct: also called hIL-8
T3 sequence: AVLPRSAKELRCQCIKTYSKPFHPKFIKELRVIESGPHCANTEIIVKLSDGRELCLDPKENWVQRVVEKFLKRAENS
The experiment in a line: SPR pH 7.4 40C; 50C 1 week in PBS against initial. The protocol: The levels of human IL-8 binding to the modified antibodies were analyzed using BIACORE T200 (GE Healthcare). Measurements were carried out at 40° C. by using 0.05% tween20, 40 mM ACES, and 150 mM NaCl at pH 7.4 as the running buffer.
An appropriate amount of Protein A/G (PIERCE) was immobilized onto the Sensor chip CM4 (GE Healthcare) by the amine coupling method and the antibodies of interest was captured. Next, a diluted human IL-8 solution or a running buffer (used as a reference solution) was injected to allow interaction of the antibodies captured onto the sensor chip with human IL-8. The running buffer was also used to dilute human IL-8. To regenerate the sensor chip, 25 mM NaOH and 10 mM glycine-HCl (pH 1.5) were used. The measured binding level of human IL-8 and the amount of antibodies captured at that binding level were extracted using the BIACORE T200 Evaluation Software (GE Healthcare).
The amount of human IL-8-binding per 1000 RU of the amount of antibody captured was calculated for the initial samples and the samples for the thermal acceleration test. Furthermore, the ratio of the human IL-8-binding level for the initial samples to that for samples of the thermal acceleration test was calculated.

In assay [7] the target is T4, soluble cynomolgus monkey FcγRIIIa (cynomolgus monkey, UniProt Q8SPW2 17-208, limits assumed).
T4 construct: soluble His-tagged form; also called cynoFcγRIIIa
T4 sequence (Q8SPW2 17-208 limits assumed): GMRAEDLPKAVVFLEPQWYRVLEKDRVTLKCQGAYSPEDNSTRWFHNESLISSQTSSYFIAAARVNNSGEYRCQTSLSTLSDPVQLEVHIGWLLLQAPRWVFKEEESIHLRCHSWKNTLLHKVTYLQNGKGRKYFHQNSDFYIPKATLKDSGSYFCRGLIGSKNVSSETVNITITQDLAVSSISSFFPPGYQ
The assay can be described thus: SPR, Ab captured on Protein L, 20C. Here is the method:
(§3) Soluble FcγRIa and FcγRIIIa in both human and cynomolgus monkey were produced in the form of His-tagged molecules by methods known to those of ordinary skill in the art. An appropriate amount of rProtein L (BioVision) was immobilized onto the Sensor chip CM4 (GE Healthcare) by the amine coupling method and antibody of interest was captured. Next, soluble FcγRIa or FcγRIIIa was injected with a running buffer (used as a reference solution), and was made to interact with the antibodies captured onto the sensor chip. HBS-EP+ (GE Healthcare) was used as the running buffer, and HBS-EP+ was also used to dilute the soluble FcγRIa or FcγRIIIa. To regenerate the sensor chip, 10 mM glycine-HCl at pH 1.5 was used. All measurements were carried out at 20° C.

Assay [8] concerns the target T5, soluble human FcγRIa (human, UniProt P12314 16-292, limits assumed).
T5 construct: soluble His-tagged form; also called hFcγRIa
The experiment in a line: SPR, Ab captured on Protein L, 20C. The protocol:
as §3

Assay [9] has as its target T6, soluble human FcγRIIIa (human, UniProt P08637 17-208, limits assumed).
T6 construct: soluble His-tagged form; also called hFcγRIIIa
The assay can be described thus: SPR, Ab captured on Protein L, 20C. Here is the method:
as §3

In assay [10] the target is T3, human IL-8. The assay can be described thus: SPR pH 5.8 37C. The protocol: (§4) The following two running buffers were used, and measurements were carried out at the respective temperatures: (1) 0.05% tween20, 40 mM ACES, 150 mM NaCl, pH 7.4, 40° C.: and (2) 0.05% tween20, 40 mM ACES, 150 mM NaCl, pH 5.8, 37° C.
(§5) An appropriate amount of Protein A/G (PIERCE) was immobilized onto the Sensor chip CM4 (GE Healthcare) by the amine coupling method and the antibodies of interest were captured. Next, a diluted human IL-8 solution or a running buffer (used as a reference solution) was injected to allow interaction of the antibodies captured onto the sensor chip with human IL-8. For the running buffer, either one of the above-mentioned solutions was used, and the respective buffers were also used to dilute human IL-8. To regenerate the sensor chip, 25 mM NaOH and 10 mM glycine-HCl (pH 1.5) were used. KD (M) of each antibody for human IL-8 was calculated based on the association rate constant kon (1/Ms) and dissociation rate constant koff (1/s) which are kinetic parameters calculated from sensorgrams obtained by the measurements. The BIACORE T200 Evaluation Software (GE Healthcare) was used to calculate each parameter.

The target of assay [11] is T3, human IL-8. The experiment in a line: SPR pH 7.4 40C. The protocol:
as §4, §5

Read-outs that look alike come from different tables or passages of the source.

What is called Kd is the free concentration of one partner at which half of the binding sites on the other are occupied at equilibrium, for simple one-to-one binding. As usually defined, the koff is a measure of how fast the partners let go of each other. As a reminder, the kon is the rate constant with which the complex forms.

T1 sequence (P01854 other isoform, or with tags, fused parts or gaps): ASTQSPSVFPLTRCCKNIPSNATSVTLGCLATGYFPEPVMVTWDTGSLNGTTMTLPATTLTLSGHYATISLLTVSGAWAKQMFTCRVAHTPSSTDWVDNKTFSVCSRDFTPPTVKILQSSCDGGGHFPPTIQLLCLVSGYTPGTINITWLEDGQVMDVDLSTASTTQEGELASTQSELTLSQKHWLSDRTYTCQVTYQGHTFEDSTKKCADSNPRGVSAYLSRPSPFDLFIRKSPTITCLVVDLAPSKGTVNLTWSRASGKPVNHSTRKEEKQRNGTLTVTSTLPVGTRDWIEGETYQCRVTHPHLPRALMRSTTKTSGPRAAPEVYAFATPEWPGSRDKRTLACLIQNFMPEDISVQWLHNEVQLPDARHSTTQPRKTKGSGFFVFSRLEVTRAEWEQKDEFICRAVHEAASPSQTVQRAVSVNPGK
T6 sequence (P08637 17-208 limits assumed): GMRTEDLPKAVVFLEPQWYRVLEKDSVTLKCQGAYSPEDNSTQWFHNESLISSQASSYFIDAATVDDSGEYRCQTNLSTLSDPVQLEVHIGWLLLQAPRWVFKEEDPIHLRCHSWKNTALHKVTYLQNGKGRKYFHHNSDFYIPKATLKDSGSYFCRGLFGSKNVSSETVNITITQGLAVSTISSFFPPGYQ
T5 sequence (P12314 16-292 limits assumed): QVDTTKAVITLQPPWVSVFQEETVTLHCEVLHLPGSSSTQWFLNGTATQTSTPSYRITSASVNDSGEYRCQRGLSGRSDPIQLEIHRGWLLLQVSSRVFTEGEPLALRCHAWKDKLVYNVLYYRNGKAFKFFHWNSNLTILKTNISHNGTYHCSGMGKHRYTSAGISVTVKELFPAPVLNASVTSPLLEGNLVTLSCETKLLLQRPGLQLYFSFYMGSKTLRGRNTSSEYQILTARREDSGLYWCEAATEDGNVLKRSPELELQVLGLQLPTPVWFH

B1: Ab1 (antibody, human IgG1, kappa)
heavy: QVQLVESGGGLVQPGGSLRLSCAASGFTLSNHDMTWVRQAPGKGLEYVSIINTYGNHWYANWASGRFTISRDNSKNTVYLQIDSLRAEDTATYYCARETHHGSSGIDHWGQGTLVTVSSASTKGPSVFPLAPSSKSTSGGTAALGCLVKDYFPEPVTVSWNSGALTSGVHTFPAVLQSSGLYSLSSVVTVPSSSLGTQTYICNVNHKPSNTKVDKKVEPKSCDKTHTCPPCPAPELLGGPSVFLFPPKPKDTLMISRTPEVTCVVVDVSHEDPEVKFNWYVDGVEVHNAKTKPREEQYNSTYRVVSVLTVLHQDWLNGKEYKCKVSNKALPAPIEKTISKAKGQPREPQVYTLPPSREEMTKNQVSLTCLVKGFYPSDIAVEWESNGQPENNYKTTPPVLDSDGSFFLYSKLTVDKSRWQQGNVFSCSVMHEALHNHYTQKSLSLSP
light: DIQMTQSPSSVSASVGDRVTITCQASESIYSGLAWYQQKPGQPPKLLIYDHSTLASGVPSRFSGSGSGTEYALTISSLQPEDFATYYCQHADYAHHSDNVFGGGTKVEIKRTVAAPSVFIFPPSDEQLKSGTASVVCLLNNFYPREAKVQWKVDNALQSGNSQESVTEQDSKDSTYSLSSTLTLSKADYEKHKVYACEVTHQGLSSPVTKSFNRGEC
notes: also called Ab1H/Ab1L; original Ab1; copies: 2 + 2
Consider B1, for which the Kd in assay [1] came to 2400 nM; in [2], 2.3 nM. The figures for the koff in assay [1] and in assay [2] were 0.039 s⁻¹ and 0.006 s⁻¹, respectively. The kon turned out to be 16000 M⁻¹ s⁻¹ in [1] and 2.7e+06 M⁻¹ s⁻¹ in [2]. The “BIACORE fold (relative binding, original Ab1=1.00)” value in [3], in [4] and in assay [5] was 1 fold each time.

B2: H1009/L395 (antibody, human IgG1, kappa)
heavy: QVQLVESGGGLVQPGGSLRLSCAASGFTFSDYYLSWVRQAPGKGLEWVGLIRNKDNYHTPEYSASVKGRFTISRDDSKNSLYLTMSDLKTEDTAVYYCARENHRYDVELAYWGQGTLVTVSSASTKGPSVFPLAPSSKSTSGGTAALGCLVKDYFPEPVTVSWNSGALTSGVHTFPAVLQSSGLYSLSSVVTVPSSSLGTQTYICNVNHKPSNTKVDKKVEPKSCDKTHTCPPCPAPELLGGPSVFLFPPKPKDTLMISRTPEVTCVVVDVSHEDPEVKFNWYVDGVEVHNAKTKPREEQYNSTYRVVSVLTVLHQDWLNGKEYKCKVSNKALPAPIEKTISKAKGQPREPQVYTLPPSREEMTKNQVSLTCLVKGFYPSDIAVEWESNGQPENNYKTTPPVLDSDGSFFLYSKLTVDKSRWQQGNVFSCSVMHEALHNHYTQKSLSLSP
light: DIQMTQSPSSLSASVGDRVTITCRASEIIYSYLAWYQQKPGKAPKLLIYKAKTHADGVPSRFSGSGSGTDFTFTISSLQPEDIATYYCKHHFGFPRTFGQGTKVEIKRTVAAPSVFIFPPSDEQLKSGTASVVCLLNNFYPREAKVQWKVDNALQSGNSQESVTEQDSKDSTYSLSSTLTLSKADYEKHKVYACEVTHQGLSSPVTKSFNRGEC
notes: also called H1009/L0395; H1009/L395-IgG1
As to B2, the “Ratio of IL-8 Amount (Thermal Acceleration/Initial)” value in [6] amounted to 0.64.

B3: H1009/L395-F1886s (antibody)
heavy: QVQLVESGGGLVQPGGSLRLSCAASGFTFSDYYLSWVRQAPGKGLEWVGLIRNKDNYHTPEYSASVKGRFTISRDDSKNSLYLTMSDLKTEDTAVYYCARENHRYDVELAYWGQGTLVTVSSASTKGPSVFPLAPSSKSTSGGTAALGCLVKDYFPEPVTVSWNSGALTSGVHTFPAVLQSSGLYSLSSVVTVPSSSLGTQTYICNVNHKPSNTKVDKKVEPKSCDKTHTCPPCPAPELRRGPKVFLFPPKPKDTLMISRTPEVTCVVVDVSHEDPEVKFNWYVDGVEVHNAKTKPREEQYNSTYRVVSVLTVLHQDWLNGKEYKCKVSNKALPAPIEKTISKAKGQPREPQVYTLPPSREEMTKNQVSLTCLVKGFYPSDIAVEWESNGQPENNYKTTPPVLDSDGSFFLYSKLTVDKSRWQQGNVFSCSVLHEALHAHTTRKELSLSP
light: DIQMTQSPSSLSASVGDRVTITCRASEIIYSYLAWYQQKPGKAPKLLIYKAKTHADGVPSRFSGSGSGTDFTFTISSLQPEDIATYYCKHHFGFPRTFGQGTKVEIKRTVAAPSVFIFPPSDEQLKSGTASVVCLLNNFYPREAKVQWKVDNALQSGNSQESVTEQDSKDSTYSLSSTLTLSKADYEKHKVYACEVTHQGLSSPVTKSFNRGEC
notes: copies: 2 + 2
Regarding B3, the binding result in [7], in assay [8] and in assay [9] was “no binding” in each case.

B4: H1023/L0442 (antibody, human IgG1, kappa, name in Kabat numbering, V domains shown)
VH: QVQLVESGGGLVQPGGSLRLSCAASGFTFSDYYLSWVRQAPGKGLEWVGLIRNKDNGYHPEYSASVKGRFTISRDDSKNSLYLTMSDLKTEDTAVYYCARENHRYDVELAYWGQGTLVTVSS
VL: DIQMTQSPSSLSASVGDRVTITCRASEIIYEYLAWYQQKPGKAPKLLIYKAKTHADGVPSRFSGSGSGTDFTFTISSLQPEDIATYYCKHHFGFPRTFGQGTKVEIKR
With B4, in assay [10], the Kd was 7100 nM and the koff was 0.017 s⁻¹. This molecule also gave a Kd in assay [11] of 0.12 nM.

B5: H1023/L0395 (antibody, human IgG1, kappa, name in Kabat numbering, V domains shown)
VH: QVQLVESGGGLVQPGGSLRLSCAASGFTFSDYYLSWVRQAPGKGLEWVGLIRNKDNGYHPEYSASVKGRFTISRDDSKNSLYLTMSDLKTEDTAVYYCARENHRYDVELAYWGQGTLVTVSS
VL: DIQMTQSPSSLSASVGDRVTITCRASEIIYSYLAWYQQKPGKAPKLLIYKAKTHADGVPSRFSGSGSGTDFTFTISSLQPEDIATYYCKHHFGFPRTFGQGTKVEIKR
With B5, the Kd in assay [10] is 92 nM; in assay [11], 0.076 nM. The molecule also showed a koff in [10] of 0.018 s⁻¹.

B6: H1040/L0442 (antibody, human IgG1, kappa, name in Kabat numbering, V domains shown)
VH: QVQLVESGGGLVQPGGSLRLSCAASGFTFSEYYLSWVRQAPGKGLEWVGLIRNKDNHHHPEYSASVKGRFTISRDDSKNSLYLTMSDLKTEDTAVYYCARENHRYDVELAYWGQGTLVTVSS
VL: DIQMTQSPSSLSASVGDRVTITCRASEIIYEYLAWYQQKPGKAPKLLIYKAKTHADGVPSRFSGSGSGTDFTFTISSLQPEDIATYYCKHHFGFPRTFGQGTKVEIKR
As to B6, in [6], the “Ratio of IL-8 Amount (Thermal Acceleration/Initial)” value was 0.49.
